Results from paper doi:10.1101/2025.11.18.689095 (bioRxiv, 2025).

What was measured:
Conditions in all cases: both partners purified
[1] = target: T1, ^19F-labeled Tom70 (5-fluoro-tryptophan, residues 108–608) (human, UniProt O94826 108-608, 5-fluoro-tryptophan at W169 and W523); assay: NMR titration; […]) 130 μM, […]) 400 μM, […]; 25°C; […]
T1 construct: human Tom70, residues 108-608; also called ^19F Tom70; 5F-Trp Tom70; source: E. coli BL21(DE3) in M9 media supplemented with 5-fluoro-tryptophan, purified as unlabeled Tom70; not shown: Avi, N-terminal, cleaved; His6, N-terminal, cleaved
T1 sequence: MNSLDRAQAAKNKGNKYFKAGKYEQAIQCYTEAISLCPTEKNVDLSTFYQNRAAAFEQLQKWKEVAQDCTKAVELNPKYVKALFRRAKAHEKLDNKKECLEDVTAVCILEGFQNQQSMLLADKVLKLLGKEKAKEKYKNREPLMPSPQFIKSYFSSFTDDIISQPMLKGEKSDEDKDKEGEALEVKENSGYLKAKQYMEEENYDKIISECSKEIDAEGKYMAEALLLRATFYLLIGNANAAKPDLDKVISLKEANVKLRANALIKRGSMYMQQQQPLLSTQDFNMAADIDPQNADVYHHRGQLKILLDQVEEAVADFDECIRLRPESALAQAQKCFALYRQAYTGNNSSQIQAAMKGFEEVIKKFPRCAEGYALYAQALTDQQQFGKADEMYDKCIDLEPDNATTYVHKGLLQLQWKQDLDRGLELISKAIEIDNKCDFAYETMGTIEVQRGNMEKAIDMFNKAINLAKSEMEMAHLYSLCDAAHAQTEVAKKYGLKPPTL

[2] = target: T2, Tom70:Hsp90_(EEVD) complex (human, UniProt O94826 108-608, C-terminus not amidated (free carboxyl)); assay: ITC; Orf9b_(Helix) (120 μM) titrated into 15 μM Tom70 or Tom70:Hsp90_(EEVD) complex (15 μM Tom70: 400 μM Hsp90_(EEVD)); 20°C; 20 mM sodium phosphate pH 7, 100 mM NaCl, 2 mM TCEP; 1:1 binding model
T2 construct: human Tom70, residues 108-608; tyrosine added to aid with quantification; C-terminal residues 724-732 of human Hsp90α; also called Tom70 complexed with Hsp90_(EEVD) peptide; not shown: Avi, N-terminal, cleaved; His6, N-terminal, cleaved

[3] = target: T3, human Tom70 (residues 108–608) (human, UniProt O94826 108-608); assay: as above
T3 construct: human Tom70 (translocase of outer mitochondria membrane 70), residues 108-608; N-terminal Avi tag, His6 tag, (GGS)5 linker and TEV site removed by TEV protease; also called hTom70; free Tom70; source: E. coli BL21 (DE3), purified (Ni-NTA, TEV cleavage, second Ni column, SEC); not shown: Avi, N-terminal, cleaved; His6, N-terminal, cleaved
T3 sequence: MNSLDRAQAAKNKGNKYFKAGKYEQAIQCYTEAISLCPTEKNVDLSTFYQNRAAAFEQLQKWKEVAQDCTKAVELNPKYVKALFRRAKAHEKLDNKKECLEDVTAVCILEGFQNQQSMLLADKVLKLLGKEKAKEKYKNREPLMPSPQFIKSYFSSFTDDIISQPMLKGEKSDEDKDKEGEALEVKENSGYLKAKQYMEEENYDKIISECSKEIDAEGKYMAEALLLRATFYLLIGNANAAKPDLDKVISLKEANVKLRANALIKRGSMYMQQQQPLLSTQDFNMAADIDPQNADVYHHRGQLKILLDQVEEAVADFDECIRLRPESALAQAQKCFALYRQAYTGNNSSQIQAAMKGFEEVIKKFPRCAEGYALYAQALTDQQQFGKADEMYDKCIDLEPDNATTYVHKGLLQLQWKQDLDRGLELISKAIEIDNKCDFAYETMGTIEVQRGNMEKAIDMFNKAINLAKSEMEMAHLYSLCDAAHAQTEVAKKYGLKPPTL

[4] = target: T4, human Hsp90α (residues 1–732), full-length (human, UniProt P07900 1-732); assay: ITC; […] (400 μM), […] (400 μM), […] (500 μM) […] (20 μM); 20°C; 20 mM sodium phosphate pH 8, 150 mM NaCl, 2 mM TCEP, 10% glycerol; 1:1 binding model
T4 construct: human Hsp90α, residues 1-732; also called full-length Hsp90; heat shock protein 90; source: E. coli BL21 Star (DE3) pLysS, purified (Ni-INDIGO, TEV cleavage, second Ni-INDIGO, HiPrep Q); not shown: Avi, N-terminal, cleaved; His6, N-terminal, cleaved

B1: Orf9b_(Helix) peptide (peptide)
peptide: IILRLGSPLSLNMARKTLNSLEDKAFQLTPIAVQY
notes: SARS-CoV-2 Orf9b residues 44-77, the helical region seen in the Tom70-Orf9b structure; tyrosine added to aid with quantification
B1: binds [1]; binds [2]; binds [3].

B2: Tom70:Orf9b_(Helix) complex (complex)
chain 1: MNSLDRAQAAKNKGNKYFKAGKYEQAIQCYTEAISLCPTEKNVDLSTFYQNRAAAFEQLQKWKEVAQDCTKAVELNPKYVKALFRRAKAHEKLDNKKECLEDVTAVCILEGFQNQQSMLLADKVLKLLGKEKAKEKYKNREPLMPSPQFIKSYFSSFTDDIISQPMLKGEKSDEDKDKEGEALEVKENSGYLKAKQYMEEENYDKIISECSKEIDAEGKYMAEALLLRATFYLLIGNANAAKPDLDKVISLKEANVKLRANALIKRGSMYMQQQQPLLSTQDFNMAADIDPQNADVYHHRGQLKILLDQVEEAVADFDECIRLRPESALAQAQKCFALYRQAYTGNNSSQIQAAMKGFEEVIKKFPRCAEGYALYAQALTDQQQFGKADEMYDKCIDLEPDNATTYVHKGLLQLQWKQDLDRGLELISKAIEIDNKCDFAYETMGTIEVQRGNMEKAIDMFNKAINLAKSEMEMAHLYSLCDAAHAQTEVAKKYGLKPPTL
chain 2: IILRLGSPLSLNMARKTLNSLEDKAFQLTPIAVQY
notes: human Tom70, residues 108-608; SARS-CoV-2 Orf9b residues 44-77; tyrosine added to aid with quantification; not shown: Avi, N-terminal, cleaved; His6, N-terminal, cleaved
In the case of B2, the “fold by which the inhibitory effect of full-length Orf9b exceeds that of Orf9b_(Helix)” value [4] is reported as 2.4 fold.
